Reference: patent publication US9833505

Biological target: ZIKV Recombinant Envelope Protein (Meridian Life Sciences, Cat # R01635) (Zika virus)
Assay: ELISA on coated recombinant ZIKV E protein, dilutions of the mAb as positive control

## monoclonal anti-Flavivirus group antigen clone D1-4G2-4-15, ascites (Cat# MAB10216, EMD Millipore) (antibody)
  end point titre: 16000
